Laboratory results taken from patent US20240218024A1, “METHODS AND COMPOSITIONS FOR TREATMENT OF VIRAL INFECTION” (TECHNION RESEARCH & DEVELOPMENT FOUNDATION LIMITED, priority 2021, published 2024).

Experiments:
[1] = system: SARS-COV-2 delta variant; assay type: cell-based; settings: slncRNA alone, low concentrations (potentially a non-specific effect at higher concentrations)
[2] = system: SARS-COV-2 omicron variant; assay type: cell-based; settings: slncRNA alone, low concentrations (potentially a non-specific effect at higher concentrations)

B1: PCP-14×/MCP-15×: class II slncRNA with fourteen PCP binding sites spaced by hairpins that do not bind PCP (SEQ ID NO: 28) (nucleic acid)
chain: GAGAAACGTTTCGACATTATATGGAATGCGAAAGTGGAACGTAATGGACATGAAGACGATTACGCTTCACACGGAGGATGCGGGAAACATGAAGATCACCCATGTTCGCTTAACCATGGATAGGGATCACCCATGTTGCGGTGGTGCGTCAACCAGAGATTTCATATGGGAAACTCTGGGACACGCTGTATTTATACATGAGGATCACCATGTGTGCTTAAATATGGGTAAGTTGACCATTAGGCAACTGTAAGATGCTCCGGTTAATTCCAGTTTATATGGAAACGGAATTGATGTACCGTTGAGCAAGAACACGATTACGGTTCTTCGATTAGATATGGTTTAAACGACAATATATGGATTGCGTTTTGGGGCACGCCGTCTGGAGAAGACCATTAGGCTTCTTTACTGCGACCGCAATAAAAGGAGATTATATGAAATCCCTTTGCGCGCAACCGGGTAGAAGATCACCATTAGGGATCTGTAACTCACGGCGCTATTACGAGTCAATATGGTGACCGTAAAGCTAGGGCATGTGCCAGAAGAGCATTAGCCTTCTCCTTGGTGGGGAAGCGATAAGCACATTATAAGGAATGGCTTAAAGTGGTGCGGCGGGGGACTTGACCATTAGGCAAGTGTGCTAGACCCTGGTCTTTTCGAGAAAATATGGTTTCCGAAAGAACTATACGAAGTGACATGCGAGGATTACCCGCATATGGTGCAAATGGGAGAATTGGAGTAAATATGGTTACCCAATAGGCTAGAGCATGACGGCAGTGAGAATTATCCACTGGTTAGCGGGTTACCGAGATTGCACATTATATGGAATGGCAATTGATTCATGCCGGTCGTTTGTGAGGAGTACCCACAAAATGGGAGGGTGCTATATAACCAGGTTATATGCAACCGGTTAGGCCGTTGTGTTAGTTTAGTTCAGCATTAGCGAACTGTGCAAGACCCGGTGGCTAAGGAGTTTATATGGAAACCCTTAGCCCTCGAGCATGCTAACATGAGGATTACCCATGTGATGGGTTTGAAACGTGCAATTATTTGATATGGCAAAAATTGGGTAGGGCATGGCTGCAGCGTGAGAATTATCCACGCTAGGCTAGAGCATGGCGGTATTGAGTTCGGGTTTGAGATGACCATTAGGCATCTGTGCTAGAGCATGCGAAAACGACATAATATGGTATGCGTTTTGGGGTGCTAGTATACCACATGATGAGCACACATGTATGGGTGGGAGGTAGAGGGATTCTCGCGAGAAGA
[1]
  antiviral response: no substantial antiviral response
[2]
  antiviral response: no substantial antiviral response
